T1: human tissue factor pathway inhibitor (TFPI) (human, UniProt P10646 29-304, limits assumed)
T1 construct: bought; also called hTFPI; human TFPI
T1 sequence (looked up): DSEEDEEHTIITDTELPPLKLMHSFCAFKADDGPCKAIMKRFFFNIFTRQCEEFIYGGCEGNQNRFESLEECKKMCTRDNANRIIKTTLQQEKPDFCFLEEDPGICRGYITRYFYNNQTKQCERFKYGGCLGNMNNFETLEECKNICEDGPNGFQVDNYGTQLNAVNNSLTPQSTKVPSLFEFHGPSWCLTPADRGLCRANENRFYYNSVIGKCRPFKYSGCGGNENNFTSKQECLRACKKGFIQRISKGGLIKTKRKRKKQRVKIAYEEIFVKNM

T2: mouse tissue factor pathway inhibitor (TFPI) (mouse, UniProt O54819 29-289, limits assumed)
T2 construct: bought; also called mTFPI; murine TFPI
T2 sequence (looked up): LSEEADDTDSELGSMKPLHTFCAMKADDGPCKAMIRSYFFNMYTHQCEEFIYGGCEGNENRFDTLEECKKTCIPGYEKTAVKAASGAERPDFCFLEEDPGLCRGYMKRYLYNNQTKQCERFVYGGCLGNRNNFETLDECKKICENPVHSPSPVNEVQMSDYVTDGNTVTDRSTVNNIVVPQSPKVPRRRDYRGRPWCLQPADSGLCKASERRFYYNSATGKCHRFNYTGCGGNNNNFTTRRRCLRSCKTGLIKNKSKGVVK


Columns and labels:
[1] = biological target: T1, human tissue factor pathway inhibitor …; experiment: competitive ELISA
[2] = biological target: T2, mouse tissue factor pathway inhibitor …; experiment: equilibrium ELISA

variant/wild-type [1] | variant/wild-type [2] | Binder
2.9 ratio | 5.7 ratio | 4B7 HC_Y112D (Fab, V domains shown) VH: QVQLQQSGPGLVKPSQTLSLTCAISGDSVSSNSAAWSWIRQSPGRGLEWLGIIYKRSKWYNDYAVSVKSRITINPDTSKNQFSLQLNSVTPEDTAVYYCARWHSDKHWGFDDWGQGTLVTVSS VL: DIVMTQSPLSLPVTPGEPASISCRSSQSLVFSDGNTYLNWYLQKPGQSPQLLIYKGSNRASGVPDRFSGSGSGTDFTLKISRVEAEDVGVYYCQQYDSYPLTFGQGTKVEIKR
5.3 ratio | 7 ratio | 4B7 LC_D33F (Fab, V domains shown) VH: QVQLQQSGPGLVKPSQTLSLTCAISGDSVSSNSAAWSWIRQSPGRGLEWLGIIYKRSKWYNDYAVSVKSRITINPDTSKNQFSLQLNSVTPEDTAVYYCARWHSDKHWGFDYWGQGTLVTVSS VL: DIVMTQSPLSLPVTPGEPASISCRSSQSLVFSFGNTYLNWYLQKPGQSPQLLIYKGSNRASGVPDRFSGSGSGTDFTLKISRVEAEDVGVYYCQQYDSYPLTFGQGTKVEIKR
1.8 ratio | 5.5 ratio | 4B7 LC_D97T (Fab, V domains shown) VH: QVQLQQSGPGLVKPSQTLSLTCAISGDSVSSNSAAWSWIRQSPGRGLEWLGIIYKRSKWYNDYAVSVKSRITINPDTSKNQFSLQLNSVTPEDTAVYYCARWHSDKHWGFDYWGQGTLVTVSS VL: DIVMTQSPLSLPVTPGEPASISCRSSQSLVFSDGNTYLNWYLQKPGQSPQLLIYKGSNRASGVPDRFSGSGSGTDFTLKISRVEAEDVGVYYCQQYTSYPLTFGQGTKVEIKR
1.7 ratio | 1.3 ratio | 4B7 LC_F31M (Fab, V domains shown) VH: QVQLQQSGPGLVKPSQTLSLTCAISGDSVSSNSAAWSWIRQSPGRGLEWLGIIYKRSKWYNDYAVSVKSRITINPDTSKNQFSLQLNSVTPEDTAVYYCARWHSDKHWGFDYWGQGTLVTVSS VL: DIVMTQSPLSLPVTPGEPASISCRSSQSLVMSDGNTYLNWYLQKPGQSPQLLIYKGSNRASGVPDRFSGSGSGTDFTLKISRVEAEDVGVYYCQQYDSYPLTFGQGTKVEIKR
1.9 ratio | 8.2 ratio | 4B7 LC_N35V LC_G56D (Fab, V domains shown) VH: QVQLQQSGPGLVKPSQTLSLTCAISGDSVSSNSAAWSWIRQSPGRGLEWLGIIYKRSKWYNDYAVSVKSRITINPDTSKNQFSLQLNSVTPEDTAVYYCARWHSDKHWGFDYWGQGTLVTVSS VL: DIVMTQSPLSLPVTPGEPASISCRSSQSLVFSDGVTYLNWYLQKPGQSPQLLIYKDSNRASGVPDRFSGSGSGTDFTLKISRVEAEDVGVYYCQQYDSYPLTFGQGTKVEIKR
9.1 ratio | 23.6 ratio | 4B7 LC_F31I (Fab, V domains shown) VH: QVQLQQSGPGLVKPSQTLSLTCAISGDSVSSNSAAWSWIRQSPGRGLEWLGIIYKRSKWYNDYAVSVKSRITINPDTSKNQFSLQLNSVTPEDTAVYYCARWHSDKHWGFDYWGQGTLVTVSS VL: DIVMTQSPLSLPVTPGEPASISCRSSQSLVISDGNTYLNWYLQKPGQSPQLLIYKGSNRASGVPDRFSGSGSGTDFTLKISRVEAEDVGVYYCQQYDSYPLTFGQGTKVEIKR
2.1 ratio | 6 ratio | 4B7 LC_N35L (Fab, V domains shown) VH: QVQLQQSGPGLVKPSQTLSLTCAISGDSVSSNSAAWSWIRQSPGRGLEWLGIIYKRSKWYNDYAVSVKSRITINPDTSKNQFSLQLNSVTPEDTAVYYCARWHSDKHWGFDYWGQGTLVTVSS VL: DIVMTQSPLSLPVTPGEPASISCRSSQSLVFSDGLTYLNWYLQKPGQSPQLLIYKGSNRASGVPDRFSGSGSGTDFTLKISRVEAEDVGVYYCQQYDSYPLTFGQGTKVEIKR
4.3 ratio | 7.9 ratio | 4B7 LC_D33F LC_Y54F (Fab, V domains shown) VH: QVQLQQSGPGLVKPSQTLSLTCAISGDSVSSNSAAWSWIRQSPGRGLEWLGIIYKRSKWYNDYAVSVKSRITINPDTSKNQFSLQLNSVTPEDTAVYYCARWHSDKHWGFDYWGQGTLVTVSS VL: DIVMTQSPLSLPVTPGEPASISCRSSQSLVFSFGNTYLNWYLQKPGQSPQLLIFKGSNRASGVPDRFSGSGSGTDFTLKISRVEAEDVGVYYCQQYDSYPLTFGQGTKVEIKR
3.6 ratio | 7.1 ratio | 4B7 LC_N35I (Fab, V domains shown) VH: QVQLQQSGPGLVKPSQTLSLTCAISGDSVSSNSAAWSWIRQSPGRGLEWLGIIYKRSKWYNDYAVSVKSRITINPDTSKNQFSLQLNSVTPEDTAVYYCARWHSDKHWGFDYWGQGTLVTVSS VL: DIVMTQSPLSLPVTPGEPASISCRSSQSLVFSDGITYLNWYLQKPGQSPQLLIYKGSNRASGVPDRFSGSGSGTDFTLKISRVEAEDVGVYYCQQYDSYPLTFGQGTKVEIKR
5.4 ratio | 3.4 ratio | 4B7 LC_N35T (Fab, V domains shown) VH: QVQLQQSGPGLVKPSQTLSLTCAISGDSVSSNSAAWSWIRQSPGRGLEWLGIIYKRSKWYNDYAVSVKSRITINPDTSKNQFSLQLNSVTPEDTAVYYCARWHSDKHWGFDYWGQGTLVTVSS VL: DIVMTQSPLSLPVTPGEPASISCRSSQSLVFSDGTTYLNWYLQKPGQSPQLLIYKGSNRASGVPDRFSGSGSGTDFTLKISRVEAEDVGVYYCQQYDSYPLTFGQGTKVEIKR
2.4 ratio | 1.3 ratio | 4B7 LC_D97M (Fab, V domains shown) VH: QVQLQQSGPGLVKPSQTLSLTCAISGDSVSSNSAAWSWIRQSPGRGLEWLGIIYKRSKWYNDYAVSVKSRITINPDTSKNQFSLQLNSVTPEDTAVYYCARWHSDKHWGFDYWGQGTLVTVSS VL: DIVMTQSPLSLPVTPGEPASISCRSSQSLVFSDGNTYLNWYLQKPGQSPQLLIYKGSNRASGVPDRFSGSGSGTDFTLKISRVEAEDVGVYYCQQYMSYPLTFGQGTKVEIKR
3.6 ratio | 7.2 ratio | 4B7 LC_D33R (Fab, V domains shown) VH: QVQLQQSGPGLVKPSQTLSLTCAISGDSVSSNSAAWSWIRQSPGRGLEWLGIIYKRSKWYNDYAVSVKSRITINPDTSKNQFSLQLNSVTPEDTAVYYCARWHSDKHWGFDYWGQGTLVTVSS VL: DIVMTQSPLSLPVTPGEPASISCRSSQSLVFSRGNTYLNWYLQKPGQSPQLLIYKGSNRASGVPDRFSGSGSGTDFTLKISRVEAEDVGVYYCQQYDSYPLTFGQGTKVEIKR
4.2 ratio | 7.8 ratio | 4B7 LC_S32R (Fab, V domains shown) VH: QVQLQQSGPGLVKPSQTLSLTCAISGDSVSSNSAAWSWIRQSPGRGLEWLGIIYKRSKWYNDYAVSVKSRITINPDTSKNQFSLQLNSVTPEDTAVYYCARWHSDKHWGFDYWGQGTLVTVSS VL: DIVMTQSPLSLPVTPGEPASISCRSSQSLVFRDGNTYLNWYLQKPGQSPQLLIYKGSNRASGVPDRFSGSGSGTDFTLKISRVEAEDVGVYYCQQYDSYPLTFGQGTKVEIKR
3.1 ratio | 6.9 ratio | 4B7 LC_N35L LC_G56A (Fab, V domains shown) VH: QVQLQQSGPGLVKPSQTLSLTCAISGDSVSSNSAAWSWIRQSPGRGLEWLGIIYKRSKWYNDYAVSVKSRITINPDTSKNQFSLQLNSVTPEDTAVYYCARWHSDKHWGFDYWGQGTLVTVSS VL: DIVMTQSPLSLPVTPGEPASISCRSSQSLVFSDGLTYLNWYLQKPGQSPQLLIYKASNRASGVPDRFSGSGSGTDFTLKISRVEAEDVGVYYCQQYDSYPLTFGQGTKVEIKR

From USRE47150 (Bayer, dated 2018)
